Experiment: label from the status in PepcDB records

Sequence	protein production
MLKNLRIRKFEPEEEYVHFTYSIKNSEREKSKELIKEYRTLLQKAIDYLWNLTKIQVRKKNGSYKITLPKKKEVYKPLREELEKINHLASHYVDKAINDAFSILKSWRKRAIKGRASIEKPTLKKAYVRIKTTLRKVVGESVRITVRPYEYITFSWSKSWFSRRVRELELGEPIIKEEKVYLPFRYKLPWVTPVNFLAIDSNLYTLDAYDGEKFVTISLKQLYSLKYSMEVKRAKVQSFASKHTKRGRELMRKYSHRERNRVLDFVHKFVNTLLDLYPMTFFAVEKLNKESMFKDANGSLSRKISRTVWRSIHRVLKYKAPLYGSFVKEVNPHLTSRSCPRCGFVSRKVGKTFECERCGFKLDRQLNASLNIYLKMCGFPHIRDIPRVWVGVIPLMGRRGMNVRDFGEAQGLRIDIKYHEILLEHHHHHH	failed
MRRQTMVKAGAVACAVALLGSLSACGGSKKSTTTADGKPIVTVLVKKNANQEKMANMQWAKDLEADCDCKIEWQEVTREAWAQQKNATLASGDIADVNLNGYGAVEAYQYPGMFEDLSKDLDKLPNVKAFFKQKPDAKKMSTDSKGRIYAIADGRGKAYSGTGQHMLINKAWLDKLGLQVPTTWDELENVLKAFKTQDPNGNGQADEIPMNIKKLEGSYFTWYSPMLLLNSTGIVTGFNKGVSEYGFYAKNGVVKSFLTSDEYKEVIKYYHKLISEGLIPAEWATKDDDAYNADQISDGKTAKTGVVFGWSPSDNFGKLKDQYIAMPVPSAPGVSPDQTVWDGSSSELSPAGLSISSHAANKDAALKLANLLYSEKYSVQQFLGSFGKAITKTGEHEYTVDNDKLSQLTGDNQYPGLSELLVGWIPDEATIKGDTHADELIEVNKVYEEQRSHFDPVKDYIPDYVNMDNMDPSDATKLNTNNAEIFNTTMQKTATWMSKGGIDEEWDAYCKQLDSIGLQESTKIWQKWYDTYTK	not failed
MSGGQQERHVLILNTVGGRRAIALEAAAYSLGRDESNAIVIDFETVSRQHAILLRVPVPGTTSYRYRLVDGNANGKPSTNGTFVNGKRISSHELQHGDVILFGRKAKASYLLLSMADTEFSQYLQSIAFQSIKSDLRGAKETLVGMELSGELRRTPNRELEHHHHHH	not failed
MAQKMTGALVFDERTDRYDIRFDLNSYYGGLHCGECFDVFVRGKWKPTRIEYGDNWYLVGIRAEDLNGLRVRI	failed
SIAYIEPYFLENDAEAASAATAAGKSTDGVSESLNIQGEILCGGAAADIAGRDFGGMNCVKPLAVVRPVGPEDIAGAVKAALRSDKLTVAARGNGHSINGQAMAEGGLVVDMSTTAENHFEVGYLSGGDATAFVDVSGGALWEDVLKRCVSEYGLAPRSWTDYLGLTVGGTLSNAGVSGQAFRYGPQTSNVTELDVVTGNGDVVTCSEIENSELFFSVLGGLGQFGIITRARVLLQPAPDMVRWIRVVYTEFDEFTQDAEWLVSQKNESSFDYVEGFVFVNGADPVNGWPTVPLHPDHEFDPTRLPQSCGSVLYCLELGLHYRDSDSNSTIDKRVERLIGRLRFNEGLRFEVDLPYVDFLLRVKRSEEIAKENGTWETPHPWLNLFVSKRDIGDFNRTVFKELVKNGVNGPMLVYPLLRSRWDDRTSVVIPEEGEIFYIVALLRFVPPCAKVSSVEKMVAQNQEIVHWCVKNGIDYKLYLPHYKSQEEWIRHFGNRWSRFVDRKAMFDPMAILSPGQKIFNRSL	not failed
MTTLYANVYLLSTPQGRLLLDTGTVNHAPAFARLLRSFDPDAVVVTHSHIDHAGNAFLAARLGYPVLAHPLEHDRLLGHDLSMPYPAGQPGVGRLVSRLHPRPGAERLGALYPGDTVRGWEVVHLPGHTDGQIGLQRDGVLLAADAVLSHPRTGAHLPREGYNWDHAVALQTLKKVADLDLHTVLPGHGRALDMAQVRARAVRDDEPGDRAEDAA	failed
MEEVKFYVRCYDKIELARMYFPNLSNPVSVAKLRRWMRNCMPLMEELMAGDFHPKMKMFSAREVRLIVRYLGEPDGYVFMHEHADVK	failed
MGKTKRYWLLKTEPNEWSWSDQESNGGISKWDGVKNKQAQKNLKSMTLGDLCFFYHSGTKSRCVVGVVEVSREWYTDDAEGVEGEGAVDVKAIGEMRKCVDLKEMKGDKGIITKGFVLFRQPRLSVVPVEEDVWNMICELGNGFCGDGKEDCESSDDE	failed
MSVAAEVAQVAQSAIDDFNAAYGLCLDDDRLEQWPTLFVDDCLYQVIARENVDNGLPAAVMYCDSKGMLADRVVALRKANVFPEHFNRHLIGRAVITGVEGDQVSAEASYVVFQTRNDGETRIYNAGKYVDRFDLSGGTVRLKSRTCIYDTLRIATLLATPI	not failed
MEKCSRETLLFIFITISSVATSTSTWMPMDGNYGASYCLSWRLAVETNNVRAWRIVPLQCLRYVEVYMLAGQYDRDVQLTVDQIKVYLNEIILPGDGMDAWILDVDDTCFSNVFYYRLKRYGCDPYDPTGFRTWAMKGESPAIQPVLELFYKLIETGFKVFLVTGRDEETLRQATLENLHNQGFTGYERLIMRTADNKRQSATTYKTRIRKEMMEEGYRIWGNVGDQWSDLQGEYSGDRTFKIPNPMYFVP	failed
MIDLRSDTVTKPTEEMRKAMAQAEVGDDVYGEDPTINELERLAAETFGKEAALFVPSGTMGNQVSIMAHTQRGDEVILEADSHIFWYEVGAMAVLSGVMPHPVPGKNGAMDPDDVRKAIRPRNIHFPRTSLIAIENTHNRSGGRVVPLENIKEICTIAKEHGINVHIDGARIFNASIASGVPVKEYAGYADSVMFCLSKGLCAPVGSVVVGDRDFIERARKARKMLGGGMRQAGVLAAAGIIALTKMVDRLKEDHENARFLALKLKEIGYSVNPEDVKTNMVILRTDNLKVNAHGFIEALRNSGVLANAVSDTEIRLVTHKDVSRNDIEEALNIFEKLFRKFS	not failed
MNPGKGPVLRFRVQLLVVGFALALGAAHQAQAAPGRALYKLPDLRVGLGDDNQGDTIPGPTRPNGSIHPSPDTLKASNAGYNPAEPISGFAQLHSQGSGGVTTYGTFLLSPQVGEPVFDEAAHLSPKADETLAADAYSVRLTRYDTKVEITSAHYAAIYRLTYPTTDQAQVVLDVTRKVGGLVASEQADVQLFPEQGRIVGHVKAKGYWNPALIDIWFVAEFDQNPTAWGVFDKAERRDGALSGRTGSDERLGAWLTFKTTPTKPLLVKIAVSFVSAEMAKALLDREIPDWDFERVRRDTQAAWNDRLGQVRVEGMTESQQRRFYSALYHASTHPRDRSLDQPAARLGRPNWDEHYTLWDTYRTLFPLISVLRPSLYTANVNSLIHTFDKFGAADTAIIGGQNYHVGQGGDEVDNVLGEALLRGAEGVNWRDAWRVARFNAFERRRPRYLESGYFAVGDRSPEPNNQRAKSGSSTLGFALNDFYAAQVAAKAGQTDEAKILTERSANWRKIWNPDATSDGFSGFLMPRYADGKFQDIDPKLGWDGKVHNNVGYYEGTAWIYSYGVLHDLPGLVEAMGGRVRFNERLNHALDAGLIDITNEPSFATPWLFHAIGRADLSSRWAGEVVKHFTADAYPGDEDAGAMSSNFVFNSLGLFPKLGSDLYYLHGPRHGRTVIQLENGKTLEILAAKAGASRPYIASASFNGKPLAGPYVSQAQLLGGGVLSLSMSDQPGQWIYEGAVLTVRADQPSLVDGKTSTGWRAASGQSVTFSLKAPACIAAYSVSVGPDQADPSHWTLQAYDGRAWVSVDQQSNVVFDHRHATRTFPLAPGRYARLRWVLDGGSEASVSEVELIAGASCAAPTSGAPLL	failed
MKQFVLFFISLFLLGVGARSQEMYQKKVFISSRGDSLNYRLLRPEVEKTGLQYPLVLFLHGAGERGSDNEKQLTHGGQMFLNPVNREKYPAFVLVPQCPEKDYWAYTSRPSSFIPSEMPVGQEITPVLRAVKELLDTYLDLPQVDRNRIYVVGLSMGGMATYDLAVRFPDTFAAAVPICGTVNPVRLADAANVRFRIFHGDADNVVPVEGSREAYKALKNLGAEVEYIEFPGCNHGSWNPAFNYPGFMEWLFAQRKR	failed
MYKDKVAVIMSVYKSDNPIDFNVAVNSIIRQTLKCDIFIYQDGPVSRELKSAINRFRKFNNIFIFVSEENKGLAYALNYLIDSCLLNNYQYIARMDSDDISHKNRMSIQVNFLEDNSDIHVVGSYCKEFGADCSLAEKKLPITHNDLLNFSITRCPFIHPSVMFRTSIFYNGLRYPVNTKYTEDMAFWFILLDLGYKFENIPETLIDYRMTENTVLRRRGFDKALSEVFIRFKYMIKFKKITVKNVSFIIGRFVFHLLPPNAIKYLYKKMR	failed
MSDKRDARFYQEVLDICLTAGRLMIEGGSEMYRVEDTMLRIARNADINDPRVFATPTCVFMSLDGGKLSQMKQIRDRNINLELVDRVNELSREFATKKIDLSELKNRIIEVANAPSFPMWMQIIGAAVLSATLMVLFMDDYDWVDFPGAALVGAIGFWAYYEFKKYTKVRFLSELIAAMIMGVLALGLNYLYPKMIIDNILIGALMTLVPGLAMTNALRDLFMGDLLSGIVRMCEAILSALALGGGVGLVLKFVGG	failed
METPAVSLLVAVYNTETYIRTCLESLRNQTMDNIEIIIVNDGSADASPDIAEEYAKMDNRFKVIHQENQGLGAVRNKGIEAARGEFIAFIDSDDWIEPDYCEQMLRTAGDETDLVICNYAAEFEDTGKTMDSDIAQTYQDQPKEHYIKALFEGKVRGFSWNKLYRRSMIEAHRLSFPLRGELEHVEDQFFSFRAHFFARSVSYVKTPLYHYRIHLSSIVQRYQKKLFESGLALYETNAAFLQENNKLEEYRKELDTFIVLHSSICMLNEWKTSGSRRLFEKLRNVGVICADPVFQESLSKTGTAPFDAKRSCLLLMAKYRMIPFVAMASAVYQRVIEYKMRNRG	failed
MTLQLNFGRVEDMNKSSLTTTALTILRVIAGFLFAAHGWQKFNEFTIAGTQASFTQMGVPGASAVAPIVATLELVGGIALIIGLLTRVFAALLAVNMLGALFLVHAPAGVFVGNGGYELVLLFAGAALALALAGAGRISADAALFGRQSSKLRVLA	failed
GNQSTSSKGSDTKKEQITVKHQLDKNGTKVPKNPKKVVVFDFGSLDTLDKLGLDDIVAGLPKQVLPKYLSKFKDDKYADVGSLKEPDFDKVAELDPDLIIISARQSESYKEFSKIAPTIYLGVDTAKYMESFKSDAETIGKIFDKEDKVKDELANIDHSIADVKKTAEKLNKNGLVIMANDGKISAFGPKSRYGLIHDVFGVAPADQNIKASTHGQSVSYEYISKTNPDYLFVIDRGTAIGETSSTKQVVENDYVKNVNAVKNGHVIYLDSATWYLSGGGLESMTQMIKEVKDGLEK	not failed
MGTNKQTALLPTVNQAITDGAVFGVSYSLLGPQENALHVIGYQGAGDDRLPLLPQARYDLASLTKVVGTTTRLLQLLIAGKLELTQPIGSLVSGLRYPQLTIEQLMLHRSGLPADVPDAHALDQAGLVHAVKTMAAVAAPDTETIYSDLNYIILGWAIAALDGDLATSLTQHIFAPLGMHATGYRPQHVAAADFVPTENVPARGGIIRGTVHDHKAFLLDGVSGHAGLFATLADLTIFTRLLAGLPVTNGDHVLPPAAFVLLDRFCKGGRTLGWRCWAQGRHQYWHTGFTGTSIAFDRDTQCGFVCLTNRIYPSRANRAWLAVRRQLLTQFFEVATSWPD	failed
MVSTIIISFFIIIIAVVILVLVATRSKSPSSGGRKKVKGRAVLMKEASRRLAQNPHDIEGLFIMGDIYYQDQDWEKAYTAYSALLDRMKPLEMNKQLDVAIRYGICALKTNRLPEAKKGFLLAETINPKNLDVSYNLGYIYYLEKDYEKAVKFFKRTLILEPNSFLATKYLGYTLQHLHKYTEALPALKKALDFKPDDKEVLFAMGECFYETEATDRCLKILNHLRVDPVFGPQASLYTGMIRAKADQLERAIEDFQIGLKHTGIPMDISNELKYRLAQAYIKTQEIGQALHLLKEIQSISPGYKDAATLIMRYQELNKNKNLQIYLMSGQSEFVALCRKIVARFYPKAKVKIVDISVLAAYTDIVAEIDTSRFSDTVIFRFFRSQGTVGELLLRELHARLKEVKGGTGICMSAGTFTEEAVRFSEGRPLDLYDKTRLSNVLNSLK	failed

— a protein production outcome set (Wang et al. 2014)
